Assay results: patent US20190055322A1

B1: Nanobody 258 (13F07-40GS-14E10) (VHH)
chain: EVQLVESGGGLVQAGGSLRLSCAASGNTFSTNPMYWYRQAEGKQRELVASISSRGITNYADSVRGRFSISRDNTKDTVYLQMNSLKPEDTAVYYCRLASLSSGTVYWGKGTLVTVSSGGGGSGGGGSGGGGSGGGGSGGGGSGGGGSGGGGSGGGGSEVQLVESGGGLVQPGGSLRLSCAASGRIFSINTMGWYRQAPGKQRELVAGVTINAITNYADSVKGRFTISRDNAKNTVWLQMNSLKPEDTAVYYCHAWARSSGSAPYSQNWGQGTLVTVSS
B2: Nanobody 269 (6B05-40GS-13F07) (VHH)
chain: EVQLVESGGGLVQPGGSLRLSCAASGSIFSINTMGWYRQAPGKQRELVSTITSNLVPHYADSVQGRFTISRDNARNTVYLQMNSLKPQDTAHYYCNAWARSSGATPYTNYWGQGTLVTVSSGGGGSGGGGSGGGGSGGGGSGGGGSGGGGSGGGGSGGGGSEVQLVESGGGLVQAGGSLRLSCAASGNTFSTNPMYWYRQAEGKQRELVASISSRGITNYADSVRGRFSISRDNTKDTVYLQMNSLKPEDTAVYYCRLASLSSGTVYWGKGTLVTVSS
B3: Nanobody 283 (7E09-40GS-6B05) (VHH)
chain: EVQLVESGGGLVQAGGSLRLSCAASGRTFSSYIMGWFRQAPGKAREFVADITWGQRPYYADSVKGRFTISRDNAKNTVYLEMNSLKPEDTAVYYCAADLGVVIREEHAYWGQGTLVTVSSGGGGSGGGGSGGGGSGGGGSGGGGSGGGGSGGGGSGGGGSEVQLVESGGGLVQPGGSLRLSCAASGSIFSINTMGWYRQAPGKQRELVSTITSNLVPHYADSVQGRFTISRDNARNTVYLQMNSLKPQDTAHYYCNAWARSSGATPYTNYWGQGTLVTVSS
B4: Nanobody 308 (6B05-40GS-1E11) (VHH)
chain: EVQLVESGGGLVQPGGSLRLSCAASGSIFSINTMGWYRQAPGKQRELVSTITSNLVPHYADSVQGRFTISRDNARNTVYLQMNSLKPQDTAHYYCNAWARSSGATPYTNYWGQGTLVTVSSGGGGSGGGGSGGGGSGGGGSGGGGSGGGGSGGGGSGGGGSEVQLVESGGGLVQPGGSLRLSCAASGSTRSVNPMAWFRQAPGRQREWVATISRSGYATYADSVKGRFTISGDNAKSSVYLQMNSLKPEDTAVYYCVTGTYWGQGTLVTVSS
B5: Fab 26.24 (Fab, V domains shown)
VH: EVQLVESGGGVVQPGRSLRLSCAASGFTFSNYPMHWVRQAPGKGLEWVAVISYDGSEKWYADSVKGRFTISRDNSKNTLYLEMNSLRPEDTAVYYCARNRGDIYYDFTYAMDIWGQGTTVTVSS
VL: DIQLTQSPSTLSASVGDSVTITCRASEGVDRWLAWYQQKPGRAPKLLIYDASTLQSGVPSRFSGSGSGTEFSLTISSLQPDDVATYYCQHFWGTPYTFGQGTKLEIKR
B6: Nanobody 264 (1E11-40GS-2B02) (VHH)
chain: EVQLVESGGGLVQPGGSLRLSCAASGSTRSVNPMAWFRQAPGRQREWVATISRSGYATYADSVKGRFTISGDNAKSSVYLQMNSLKPEDTAVYYCVTGTYWGQGTLVTVSSGGGGSGGGGSGGGGSGGGGSGGGGSGGGGSGGGGSGGGGSEVQLVESGGGLVQPGDSLRLSCAASGRILSINNMVWYRQAPGKQRELVAHITSSGSTGYADSVKGRFTISRDNAKNTFYLQMTNLNPEDTAVYYCNCWVSSDSNAPLKNYWGQGTLVTVSS
B7: Nanobody 260 (1E11-40GS-2B10) (VHH)
chain: EVQLVESGGGLVQPGGSLRLSCAASGSTRSVNPMAWFRQAPGRQREWVATISRSGYATYADSVKGRFTISGDNAKSSVYLQMNSLKPEDTAVYYCVTGTYWGQGTLVTVSSGGGGSGGGGSGGGGSGGGGSGGGGSGGGGSGGGGSGGGGSEVQLVESGGGLVQPGGSLRLSCAASGSIFSINNMGWYRQAPGKQRELVTVVTSNLITTYADSVKGRFTISRDNAKNTVYLQMNSLKPEDTAVYYCNAWARSVGSVPYSQFWGQGTLVTVSS
B8: Nanobody 087 (1E11-40GS-7C10) (VHH)
chain: EVQLVESGGGLVQPGGSLRLSCAASGSTRSVNPMAWFRQAPGRQREWVATISRSGYATYADSVKGRFTISGDNAKSSVYLQMNSLKPEDTAVYYCVTGTYWGQGTLVTVSSGGGGSGGGGSGGGGSGGGGSGGGGSGGGGSGGGGSGGGGSEVQLVESGGGLVQAGGSLRLSCTASGRTLSSYTMGWFRQAPGTEREFVAAMTRSGFNTYYADSVKGRFTISRDSTENTMALQMSSLKPEDTAVYYCTAGRGLTSYRADYWGQGTLVTVSS
B9: Nanobody 272 (11B09-40GS-10C05) (VHH)
chain: EVQLVESGGGLVQAGGSLRLSCAASRLTFNHYNMGWFRQAPGKERERVAEVTWSGDKIYYVDSVKGRFTISRDNTPNPVYLYLQMNSLKPEDTAVYYCATAPRGLPYANGYWGQGTLVTVSSGGGGSGGGGSGGGGSGGGGSGGGGSGGGGSGGGGSGGGGSEVQLVESGGGLVQPGGSLRLSCAASGSIFSINTMGWYRQAPGKQRDLVASITMNQVPNYADSVQGRFTISRDNVRNTVHLQMNAVKPEDTADYFCNAWVRSSGASPYTNYWGQGTLVTVSS
B10: Nanobody 302 (5H01-40GS-7C10) (VHH)
chain: EVQLVESGGGLVQPGGSLRLSCAASGSTLDYYAIGWFRQAPGKEREGVSCTSNSGSTYYGGSVKGRFTASRDNAKNTVYLQMNSLRPEDTAVYYCVATIGCATLGGTLDVQRYYYRGQGTLVTVSSGGGGSGGGGSGGGGSGGGGSGGGGSGGGGSGGGGSGGGGSEVQLVESGGGLVQAGGSLRLSCTASGRTLSSYTMGWFRQAPGTEREFVAAMTRSGFNTYYADSVKGRFTISRDSTENTMALQMSSLKPEDTAVYYCTAGRGLTSYRADYWGQGTLVTVSS
B11: Nanobody 083 (7C10-40GS-11B09) (VHH)
chain: EVQLVESGGGLVQAGGSLRLSCTASGRTLSSYTMGWFRQAPGTEREFVAAMTRSGFNTYYADSVKGRFTISRDSTENTMALQMSSLKPEDTAVYYCTAGRGLTSYRADYWGQGTLVTVSSGGGGSGGGGSGGGGSGGGGSGGGGSGGGGSGGGGSGGGGSEVQLVESGGGLVQAGGSLRLSCAASRLTFNHYNMGWFRQAPGKERERVAEVTWSGDKIYYVDSVKGRFTISRDNTPNPVYLYLQMNSLKPEDTAVYYCATAPRGLPYANGYWGQGTLVTVSS
B12: Nanobody 234 (7C10-40GS-5H01) (VHH)
chain: EVQLVESGGGLVQAGGSLRLSCTASGRTLSSYTMGWFRQAPGTEREFVAAMTRSGFNTYYADSVKGRFTISRDSTENTMALQMSSLKPEDTAVYYCTAGRGLTSYRADYWGQGTLVTVSSGGGGSGGGGSGGGGSGGGGSGGGGSGGGGSGGGGSGGGGSEVQLVESGGGLVQPGGSLRLSCAASGSTLDYYAIGWFRQAPGKEREGVSCTSNSGSTYYGGSVKGRFTASRDNAKNTVYLQMNSLRPEDTAVYYCVATIGCATLGGTLDVQRYYYRGQGTLVTVSS
B13: Nanobody 262 (7E09-40GS-7C10) (VHH)
chain: EVQLVESGGGLVQAGGSLRLSCAASGRTFSSYIMGWFRQAPGKAREFVADITWGQRPYYADSVKGRFTISRDNAKNTVYLEMNSLKPEDTAVYYCAADLGVVIREEHAYWGQGTLVTVSSGGGGSGGGGSGGGGSGGGGSGGGGSGGGGSGGGGSGGGGSEVQLVESGGGLVQAGGSLRLSCTASGRTLSSYTMGWFRQAPGTEREFVAAMTRSGFNTYYADSVKGRFTISRDSTENTMALQMSSLKPEDTAVYYCTAGRGLTSYRADYWGQGTLVTVSS
B14: Nanobody 064 (13F07-40GS-7C10) (VHH)
chain: EVQLVESGGGLVQAGGSLRLSCAASGNTFSTNPMYWYRQAEGKQRELVASISSRGITNYADSVRGRFSISRDNTKDTVYLQMNSLKPEDTAVYYCRLASLSSGTVYWGKGTLVTVSSGGGGSGGGGSGGGGSGGGGSGGGGSGGGGSGGGGSGGGGSEVQLVESGGGLVQAGGSLRLSCTASGRTLSSYTMGWFRQAPGTEREFVAAMTRSGFNTYYADSVKGRFTISRDSTENTMALQMSSLKPEDTAVYYCTAGRGLTSYRADYWGQGTLVTVSS
B15: 4G10-40GS-7C10 (VHH)
chain: EVQLVESGGGLVQAGGSLRLSCVISEDGVRNYDMGWFRQAPGKEREFVATINWSGGSTNYADSVKGRFTVSRDNAKNTMYLQMDSLKPEDTAVYYCVAAGFYNNYLRTAPNDWNDWGQGTQVTVSSGGGGSGGGGSGGGGSGGGGSGGGGSGGGGSGGGGSGGGGSEVQLVESGGGLVQAGGSLRLSCTASGRTLSSYTMGWFRQAPGTEREFVAAMTRSGFNTYYADSVKGRFTISRDSTENTMALQMSSLKPEDTAVYYCTAGRGLTSYRADYWGQGTLVTVSS
B16: 3E10-40GS-2B10 (VHH)
chain: EVQLVESGGGLVQAGGSLRLSCTASGHTFSSYTMGWFRQAPGKEREFVAAMTRSGFNTHYSDSVKGRFTISRDNTSRDNTKITMALQMNSLKPEDTAVYYCTTGRGLTSYVANFWGQGTQVTVSSGGGGSGGGGSGGGGSGGGGSGGGGSGGGGSGGGGSGGGGSEVQLVESGGGLVQPGGSLRLSCAASGSIFSINNMGWYRQAPGKQRELVTVVTSNLITTYADSVKGRFTISRDNAKNTVYLQMNSLKPEDTAVYYCNAWARSVGSVPYSQFWGQGTLVTVSS
B17: 3E10-40GS-5H01 (VHH)
chain: EVQLVESGGGLVQAGGSLRLSCTASGHTFSSYTMGWFRQAPGKEREFVAAMTRSGFNTHYSDSVKGRFTISRDNTSRDNTKITMALQMNSLKPEDTAVYYCTTGRGLTSYVANFWGQGTQVTVSSGGGGSGGGGSGGGGSGGGGSGGGGSGGGGSGGGGSGGGGSEVQLVESGGGLVQPGGSLRLSCAASGSTLDYYAIGWFRQAPGKEREGVSCTSNSGSTYYGGSVKGRFTASRDNAKNTVYLQMNSLRPEDTAVYYCVATIGCATLGGTLDVQRYYYRGQGTQVTVSS

Target: PcrV of P. aeruginosa strain PA103 (on TTSS-induced bacteria) (Pseudomonas aeruginosa strain PA103)
Assay: cell-based or functional assay

| Binder | % inhibition in P3X63 cytotoxicity assay, extract 1/150 | also measured |
| --- | --- | --- |
| B1 | 69% | Efficacy (%), P3X63 cytotoxicity, MOI 12: 100%; IC50 value (M), P3X63 cytotoxicity, MOI 12: 9e-11 M; Ratio (IC50 Fab 13.37/IC50 Nanobody), A549 cytotoxicity: 1 fold |
| B2 | 41% | Efficacy (%), P3X63 cytotoxicity, MOI 12: 100%; IC50 value (M), P3X63 cytotoxicity, MOI 12: 8.2e-10 M; Ratio (IC50 Fab 13.37/IC50 Nanobody), A549 cytotoxicity: 1 fold |
| B3 | 45% | Efficacy (%), P3X63 cytotoxicity, MOI 12: 100%; IC50 value (M), P3X63 cytotoxicity, MOI 12: 7.6e-11 M; Ratio (IC50 Fab 13.37/IC50 Nanobody), A549 cytotoxicity: 1 fold |
| B4 | 57% | Efficacy (%), P3X63 cytotoxicity, MOI 12: 100%; IC50 value (M), P3X63 cytotoxicity, MOI 12: 1.8e-10 M; Ratio (IC50 Fab 13.37/IC50 Nanobody), A549 cytotoxicity: 0.3 fold |
| B5 |  | % inhibition, P3X63 cytotoxicity assay, MOI 1.5: 100%; % inhibition, P3X63 cytotoxicity assay, MOI 4: 100%; IC50 (nM), P3X63 cytotoxicity assay, MOI 1.5: 34 nM; IC50 (nM), P3X63 cytotoxicity assay, MOI 4: 48 nM |
| B6 | 47% |  |
| B7 | 57% |  |
| B8 | 49% |  |
| B9 | 66% |  |
| B10 | 68% |  |
| B11 | 61% |  |
| B12 | 63% |  |
| B13 | 48% |  |
| B14 | 74% |  |
| B15 | 81% |  |
| B16 | 52% |  |
| B17 | 85% |  |
